Data on twelve molecules can be found in patent US20180057604A1 (Genentech, published 2018).

To fix the notation:
B1: 5986 (antibody, V domains shown)
VH: QLQLQESGPGLVKPSETLSLTCTVSGGSISSSSYYWGWIRQPPGKGLEWIGQIYYSGSTFYNPSLKSRVTISVDTSKNQFSLKLSSVTAADTAVYYCARLGHGYSYFDLWGRGTLVTVSS
VL: EIVLTQSPATLSLSPGERATLSCRASQSVSSYLAWFQQKPGQAPRLLIYDASNRATGIPARFSGSGSGTDFTLTISSLEPEDFAVYYCQQVYVWPPRTFGGGTKVEIK
notes: anti-BACE1 IgG
B2: 5260 (antibody, V domains shown)
VH: QVQLVQSGAEVKKPGSSVKVSCKASGGTFSSYAISWVRQAPGQGLEWMGSIIPIFGTANYAQKFQGRVTITADESTSTAYMELSSLRSEDTAVYYCARSGGTKYGMLDVWGQGTMVTVSS
VL: EIVMTQSPATLSVSPGERATLSCRASQSVGSNLAWYQQKPGQAPRLLIYGASTRATGIPARFSGSGSGTEFTLTISSLQSEDFAVYYCQQAVVWPPRTFGGGTKVEIK
notes: anti-BACE1 IgG
B3: 5571 (antibody, V domains shown)
VH: B2 VH with S50N, M115V
VL: B2 VL with G30S, A91L, V92I, V93L
notes: anti-BACE1 IgG
B4: 5536 (antibody, V domains shown)
VH: B2 VH
VL: B2 VL with A91S, V92Y, V93L
notes: anti-BACE1 IgG
B5: 5747 (antibody, V domains shown)
VH: B1 VH with Q52N, F60Y
VL: B1 VL with F36Y, V93L
notes: anti-BACE1 IgG
B6: hu7A4.v5 (antibody, V domains shown)
VH: EVQLVQSGAEVKKPGASVKVSCKASGYTFTDYAMHWVRQAPGQGLEWMGGISTYFGRTNYNQKFKGRVTMTRDTSISTAYMELSRLRSDDTAVYYCARGLSGNYVMDYWGQGTTVTVSS
VL: DIVMTQSPDSLAVSLGERATINCRASESVDSYGNSFMHWYQQKPGQPPKLLIYRASNLESGIPDRFSGSGSGTDFTLTISSLQAEDVAVYYCQQSNEGPPTFGQGTKLEIK
notes: IgG
B7: 5878 (antibody, V domains shown)
VH: EVQLLESGGGLVQPGGSLRLSCAASGFTFSSYAMSWVRQAPGKGLEWVSAISGSGISTPYADSVKGRFTISRDNSKNTLYLQMNSLRAEDTAVYYCAKGAGHGSYVKGWFDPWGQGTLVTVSS
VL: EIVLTQSPATLSLSPGERATLSCRASQSVSSYLAWYQQKPGQAPRLLIYDASNRATGIPARFSGSGSGTDFTLTISSLEPEDFAVYYCQQSVNFPFTFGGGTKVEIK
notes: anti-BACE1 IgG
B8: 5881 (antibody, V domains shown)
VH: B7 VH with S31K
VL: B7 VL
notes: anti-BACE1 IgG
B9: 5876 (antibody, V domains shown)
VH: EVQLLESGGGLVQPGGSLRLSCAASGFTFSSRAMGWVRQAPGKGLEWVSATSGSGGSIYYADSVKGRFTISRDNSKNTLYLQMNSLRAEDTAVYYCAKGGSQWLYAPGSWFDPWGQGTLVTVSS
VL: B7 VL with Q89V, S91R, V92S, F96W
notes: anti-BACE1 IgG
B10: 5874 (antibody, V domains shown)
VH: B9 VH with S30G, R32Y, G35S, I58T, N84D
VL: B7 VL with Q89V, S91R, V92S, F96W
notes: anti-BACE1 IgG
B11: 5875 (antibody, V domains shown)
VH: B9 VH with S31T, R32Y, I58T
VL: B7 VL with Q89V, S91R, V92S, F96W
notes: anti-BACE1 IgG
B12: 5880 (antibody, V domains shown)
VH: B7 VH with S30G, S35T
VL: B7 VL
notes: anti-BACE1 IgG

Residue numbers refer to the chain shown, from its start.

T5 sequence (P56817 22-457 limits assumed): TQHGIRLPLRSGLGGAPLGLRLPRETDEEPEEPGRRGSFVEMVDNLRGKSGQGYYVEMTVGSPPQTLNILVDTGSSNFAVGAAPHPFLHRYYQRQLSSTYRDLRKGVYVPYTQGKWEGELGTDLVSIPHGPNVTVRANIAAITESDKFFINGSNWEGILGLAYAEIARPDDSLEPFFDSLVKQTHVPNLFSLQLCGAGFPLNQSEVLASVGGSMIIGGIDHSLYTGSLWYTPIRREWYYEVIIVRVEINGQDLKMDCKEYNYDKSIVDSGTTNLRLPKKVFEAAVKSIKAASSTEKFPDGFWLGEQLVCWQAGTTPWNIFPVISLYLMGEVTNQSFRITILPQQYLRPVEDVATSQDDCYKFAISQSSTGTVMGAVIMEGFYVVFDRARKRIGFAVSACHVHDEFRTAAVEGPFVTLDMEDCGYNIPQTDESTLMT

The target in the first assay is T1, murine BACE1 ECD.
T1 construct: analyte of the Octet assay (200 nM) and enzyme of the first short substrate assay
T1 sequence (single chain, as listed by the source limits assumed): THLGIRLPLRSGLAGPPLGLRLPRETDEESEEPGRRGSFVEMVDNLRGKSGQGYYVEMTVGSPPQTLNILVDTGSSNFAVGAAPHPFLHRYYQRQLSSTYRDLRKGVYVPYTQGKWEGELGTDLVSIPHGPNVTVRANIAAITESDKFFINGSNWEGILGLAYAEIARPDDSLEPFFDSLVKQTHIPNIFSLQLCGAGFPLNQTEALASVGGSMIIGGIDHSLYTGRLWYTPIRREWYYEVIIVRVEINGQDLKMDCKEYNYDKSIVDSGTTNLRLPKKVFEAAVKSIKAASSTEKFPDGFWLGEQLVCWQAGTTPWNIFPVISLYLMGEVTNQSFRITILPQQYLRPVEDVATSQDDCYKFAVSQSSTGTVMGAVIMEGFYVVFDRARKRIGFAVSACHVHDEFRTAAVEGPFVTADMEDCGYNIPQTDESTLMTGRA
In words: Octet, pH 7.5. (In general: In BLI a coated tip is dipped into the sample, and binding shifts an interference pattern.)
A word on the Kd: it is a measure of binding affinity in units of concentration. Low values mean a tighter complex, high ones a looser complex. Turning to B1, the Kd amounted to 0.54 nM.

The target of the next assay is T2, human BACE1 ECD.
T2 construct: analyte of the Octet assay (200 nM) and enzyme of the first short substrate assay; also called human BACE1 extracellular domain
T2 sequence (single chain, as listed by the source limits assumed): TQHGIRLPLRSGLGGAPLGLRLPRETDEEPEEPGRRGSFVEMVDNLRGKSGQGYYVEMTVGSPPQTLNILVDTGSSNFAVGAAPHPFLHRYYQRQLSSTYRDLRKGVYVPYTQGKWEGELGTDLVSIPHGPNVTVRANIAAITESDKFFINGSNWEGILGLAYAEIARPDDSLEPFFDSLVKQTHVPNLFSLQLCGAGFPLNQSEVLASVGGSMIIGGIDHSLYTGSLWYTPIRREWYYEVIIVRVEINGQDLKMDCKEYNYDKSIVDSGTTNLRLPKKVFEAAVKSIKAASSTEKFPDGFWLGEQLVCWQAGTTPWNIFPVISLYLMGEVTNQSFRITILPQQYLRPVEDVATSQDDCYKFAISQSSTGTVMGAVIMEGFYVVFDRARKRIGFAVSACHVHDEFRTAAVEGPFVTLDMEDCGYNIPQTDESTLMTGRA
In words: Octet, pH 7.5.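 Further: antibodies captured on anti-human capture biosensor tips, dissociation followed in PBS with BSA buffer, kinetics fitted with a one-to-one binding model.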
For B1, the Kd came to 0.78 nM.

The target of the next assay is T3, BACE1 in primary mouse cortical neurons (mouse, UniProt P56818 46-501). In words: cell-based or functional assay.
T3 sequence (P56818 46-501): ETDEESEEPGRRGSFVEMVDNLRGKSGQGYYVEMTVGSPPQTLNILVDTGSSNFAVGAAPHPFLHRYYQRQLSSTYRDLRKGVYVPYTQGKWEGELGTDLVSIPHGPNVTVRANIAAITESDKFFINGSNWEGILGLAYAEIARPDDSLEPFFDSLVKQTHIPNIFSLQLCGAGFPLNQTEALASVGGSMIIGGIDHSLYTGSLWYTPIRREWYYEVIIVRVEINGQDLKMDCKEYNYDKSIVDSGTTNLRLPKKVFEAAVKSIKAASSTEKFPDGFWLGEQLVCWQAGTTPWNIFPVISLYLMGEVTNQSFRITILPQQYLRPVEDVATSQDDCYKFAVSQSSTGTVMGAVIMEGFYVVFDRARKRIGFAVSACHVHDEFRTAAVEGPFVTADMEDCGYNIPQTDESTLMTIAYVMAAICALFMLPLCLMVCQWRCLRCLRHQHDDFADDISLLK
Take B2: the “IC50, Abeta x-40 in mouse cortical neurons” value turned out to be 46.7 nM and the “maximal % inhibition of Abeta x-40” value came out at 74%.
On the same counts, the results for B3 are 7.11 nM and 84%.
Turning to B4, the “IC50, Abeta x-40 in mouse cortical neurons” value was 42.4 nM and the “maximal % inhibition of Abeta x-40” value was 84%.
On the same counts, the results for B5 are 25.6 nM and 74%.

The target in another assay is T4, human TfR extracellular domain with N-terminal His tag (human, UniProt P02786 89-760).
T4 construct: Biotinylated in some assays; also called huTfR; HuTfR
T4 sequence (P02786 89-760 G142S): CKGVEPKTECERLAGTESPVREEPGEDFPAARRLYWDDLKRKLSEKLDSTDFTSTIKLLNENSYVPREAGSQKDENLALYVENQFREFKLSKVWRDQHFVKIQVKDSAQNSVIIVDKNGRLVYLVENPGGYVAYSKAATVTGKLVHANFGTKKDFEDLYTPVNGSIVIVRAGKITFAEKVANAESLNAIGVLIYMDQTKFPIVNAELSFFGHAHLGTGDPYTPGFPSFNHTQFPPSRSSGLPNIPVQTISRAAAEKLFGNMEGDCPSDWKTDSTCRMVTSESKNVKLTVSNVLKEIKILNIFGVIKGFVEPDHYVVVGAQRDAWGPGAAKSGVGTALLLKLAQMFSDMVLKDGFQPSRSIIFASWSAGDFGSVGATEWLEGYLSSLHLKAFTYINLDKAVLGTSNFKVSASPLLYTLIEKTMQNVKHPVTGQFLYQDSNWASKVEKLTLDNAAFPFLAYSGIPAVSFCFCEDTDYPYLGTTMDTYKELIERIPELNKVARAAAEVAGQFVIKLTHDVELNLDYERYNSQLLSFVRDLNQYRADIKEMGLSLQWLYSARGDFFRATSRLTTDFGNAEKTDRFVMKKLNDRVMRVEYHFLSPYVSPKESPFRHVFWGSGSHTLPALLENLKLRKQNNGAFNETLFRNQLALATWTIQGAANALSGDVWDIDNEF
In words: SPR, IgG.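 Further: His-tagged TfR captured via immobilized anti-His antibody on a CM5 chip, antibody injected in 3-fold dilution series by single cycle kinetics, 1:1 Langmuir or steady-state fit.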
B6 registered a dissociation constant (Kd) of 0.364 nM.

The target of a further assay is BACE1 (HTRF long substrate and FRET short substrate assays of Example 9D). In words: cell-based or functional assay.
In the case of B2, the “EC50, FRET short substrate” value stood at 36.8 nM and the “EC50, HTRF long substrate” value came to 720 nM.
On the same counts, the results for B3 are 0.417 nM and 5.06 nM.
Turning to B4, the “EC50, HTRF long substrate” value was found to be 0.578 nM.
For B7, the “EC50, FRET short substrate” value is 24.3 nM and the “EC50, HTRF long substrate” value is 164 nM.
On the same counts, the results for B8 are 5.93 nM and 33.7 nM.
On the same counts, the results for B9 are 0.703 nM and 1.67 nM.
On the same counts, the results for B10 are 0.798 nM and 3.97 nM.
Regarding B11, the “EC50, FRET short substrate” value came out at 1.99 nM and the “EC50, HTRF long substrate” value turned out to be 4.9 nM.
On the same counts, the results for B12 are 7.88 nM and 171 nM.

Another assay deals with T3, BACE1 in primary mouse cortical neurons. In words: cell-based or functional assay. The source holds these as a separate data set.
In the case of B1, the “IC50, Abeta x-40 in mouse cortical neurons” value is 5.42 nM and the “maximal % inhibition of Abeta x-40” value was 67%.

Another assay has as its target T1, murine BACE1 ECD. In words: Octet, pH 5.0.
B2 returned a Kd of 180 nM.
Same read-out and setting: the figure for B3 is 8.4 nM; for B4 it is 6.8 nM; for B7 it is 14 nM.
The same measure, in the same setting: the figure for B8 is 15 nM; for B9 it is 43 nM.
As to B10, binding was characterised by a dissociation constant (Kd) of 200 nM.
The same measure, in the same setting: to B11 belongs 120 nM; to B12, 6.1 nM; to B5, 3.1 nM.

The target of another assay is T2, human BACE1 ECD. Description: Octet, pH 5.0.
For the molecule B2, the Kd was 120 nM.
The same measure, in the same setting: to B3 belongs 8.2 nM; to B4, 17 nM.
The same measure, in the same setting: to B7 belongs 11 nM; to B8, 11 nM.
Same read-out and setting: to B9 belongs 31 nM; to B11, 50 nM.
On to B12, for which binding was put at a Kd of 4.5 nM.
B5 displayed a Kd of 3 nM.

The next assay addresses T5, human BACE1 (R&D Systems) (human, UniProt P56817).
T5 construct: recombinant, commercial (R&D Systems)
In words: SPR (Biacore). A general note: SPR reads the build-up and loss of mass on a sensor chip optically.
Turning to B2, the Kd worked out at 14.5 nM.
In turn, B3 had a Kd of 7.31 nM.
Still for that read-out and setting: to B7 belongs 36 nM; to B8, 7.92 nM.
B9 showed a Kd of 0.72 nM. Compared with the last molecule, the Kd is about 11-fold lower.
Same read-out and setting: the figure for B10 is 1.3 nM.
Still for that read-out and setting: the figure for B11 is 1.94 nM; for B12 it is 65.5 nM.

In another assay the target is T1, murine BACE1 ECD. Description: Octet, pH 5.0. The source holds these as a separate data set.
Take B1: the Kd is less than 0.27 nM.

Another assay deals with T2, human BACE1 ECD. Description: Octet, pH 5.0. The source holds these as a separate data set.
As for B1, the Kd is less than 0.24 nM.

The next assay addresses T1, murine BACE1 ECD. Description: Octet, pH 7.5.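 Further: antibodies captured on anti-human capture biosensor tips, dissociation followed in PBS with BSA buffer, kinetics fitted with a one-to-one binding model.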 This is another data set of the same source.
For the molecule B2, the Kd came to 94 nM.
Same read-out and setting: the figure for B3 is 5.4 nM; for B4 it is 22 nM.
On the same count and under the same terms, the figure for B7 is 2.7 nM; for B8 it is 2.4 nM.
The same measure, in the same setting: the figure for B9 is 9.7 nM.
B10 showed a Kd of 22 nM.
On the same count and under the same terms, the figure for B11 is 22 nM.
Same read-out and setting: the figure for B12 is 1.2 nM; for B5 it is 2.2 nM.

Another assay has as its target T2, human BACE1 ECD. Description: Octet, pH 7.5.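 Further: antibodies captured on anti-human capture biosensor tips, dissociation followed in PBS with BSA buffer, kinetics fitted with a one-to-one binding model.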 This is another data set of the same source.
As to B2, the Kd is 94 nM.
Same read-out and setting: the figure for B3 is 5 nM; for B4 it is 15 nM; for B7 it is 2.5 nM.
Same read-out and setting: to B8 belongs 2.6 nM; to B9, 9.4 nM.
Molecule B10 came in with a Kd of 33 nM.
Consider B11, for which the Kd was determined as 32 nM.
On the same count and under the same terms, to B12 belongs 1 nM; to B5, 3.3 nM.

Another assay deals with T1, murine BACE1 ECD. Description: cell-based or functional assay.
Consider B2, for which the “% inhibition of BACE1 activity, short FRET substrate” value (“% inhibition of BACE1 activity” below) is -35%.
Same read-out and setting: to B3 belongs -175%.
Still for that read-out and setting: the figure for B4 is 30%; for B7 it is 98%.
On the same count and under the same terms, to B8 belongs 98%; to B9, 46%; to B10, 33%.
For B11, the “% inhibition of BACE1 activity” value came to 39%.
Same read-out and setting: the figure for B12 is 97%.

The target in another assay is T2, human BACE1 ECD. Description: cell-based or functional assay.
As for B2, the “% inhibition of BACE1 activity” value is -54%.
Still for that read-out and setting: to B3 belongs -89%; to B4, 32%; to B7, 99%.
The same measure, in the same setting: to B8 belongs 97%; to B9, 58%; to B10, 37%.
Still for that read-out and setting: to B11 belongs 51%.
As for B12, the “% inhibition of BACE1 activity” value was found to be 99%.
